Experimental data: US20240287161A1 (NATIONAL UNIVERSITY CORPORATION TOTTORI UNIVERSITY, published 2024)

T1: HCoV-NL63 trimeric S protein (amino acids 22-1293) with T4 foldon, histidine tag and strep-tag (HCoV-NL63, UniProt Q6Q1S2 23-1293)
T1 sequence: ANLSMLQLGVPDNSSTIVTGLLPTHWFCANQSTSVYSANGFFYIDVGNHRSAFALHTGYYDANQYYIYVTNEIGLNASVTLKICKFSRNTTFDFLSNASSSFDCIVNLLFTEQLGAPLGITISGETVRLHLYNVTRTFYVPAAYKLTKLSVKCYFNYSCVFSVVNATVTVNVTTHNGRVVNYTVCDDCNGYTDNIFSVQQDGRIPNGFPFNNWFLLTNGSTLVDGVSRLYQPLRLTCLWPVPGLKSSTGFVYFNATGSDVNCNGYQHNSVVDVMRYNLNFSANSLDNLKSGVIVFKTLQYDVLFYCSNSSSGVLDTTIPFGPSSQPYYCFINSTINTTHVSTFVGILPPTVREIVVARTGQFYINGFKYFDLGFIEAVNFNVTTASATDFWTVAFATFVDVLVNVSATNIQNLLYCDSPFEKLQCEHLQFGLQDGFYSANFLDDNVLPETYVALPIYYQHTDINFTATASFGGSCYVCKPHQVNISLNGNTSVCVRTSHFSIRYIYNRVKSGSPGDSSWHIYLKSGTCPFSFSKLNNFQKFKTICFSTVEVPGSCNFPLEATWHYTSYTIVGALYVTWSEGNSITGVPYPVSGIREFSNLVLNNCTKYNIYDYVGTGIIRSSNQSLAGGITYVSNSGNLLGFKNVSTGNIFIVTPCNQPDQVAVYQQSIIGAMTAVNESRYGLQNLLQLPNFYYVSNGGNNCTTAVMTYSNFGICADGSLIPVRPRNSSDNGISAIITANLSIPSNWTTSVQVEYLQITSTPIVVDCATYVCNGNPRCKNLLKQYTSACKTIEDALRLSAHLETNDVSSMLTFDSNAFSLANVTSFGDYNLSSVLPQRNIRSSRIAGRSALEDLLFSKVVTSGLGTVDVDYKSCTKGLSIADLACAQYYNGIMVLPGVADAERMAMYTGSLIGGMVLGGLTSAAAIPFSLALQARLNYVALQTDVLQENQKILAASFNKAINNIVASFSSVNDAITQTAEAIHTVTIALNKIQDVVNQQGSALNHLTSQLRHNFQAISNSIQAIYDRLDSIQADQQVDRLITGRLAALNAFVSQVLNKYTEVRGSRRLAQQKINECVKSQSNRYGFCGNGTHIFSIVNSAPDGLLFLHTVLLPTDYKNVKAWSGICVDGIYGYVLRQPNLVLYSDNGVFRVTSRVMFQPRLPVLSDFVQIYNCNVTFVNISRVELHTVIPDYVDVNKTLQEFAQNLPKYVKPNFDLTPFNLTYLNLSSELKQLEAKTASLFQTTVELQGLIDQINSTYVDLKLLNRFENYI

T2: HCoV-HKU1 trimeric S protein (amino acids 13-1293) with T4 foldon, histidine tag and strep-tag (HCoV-HKU1, UniProt Q5MQD0 13-1297)
T2 sequence: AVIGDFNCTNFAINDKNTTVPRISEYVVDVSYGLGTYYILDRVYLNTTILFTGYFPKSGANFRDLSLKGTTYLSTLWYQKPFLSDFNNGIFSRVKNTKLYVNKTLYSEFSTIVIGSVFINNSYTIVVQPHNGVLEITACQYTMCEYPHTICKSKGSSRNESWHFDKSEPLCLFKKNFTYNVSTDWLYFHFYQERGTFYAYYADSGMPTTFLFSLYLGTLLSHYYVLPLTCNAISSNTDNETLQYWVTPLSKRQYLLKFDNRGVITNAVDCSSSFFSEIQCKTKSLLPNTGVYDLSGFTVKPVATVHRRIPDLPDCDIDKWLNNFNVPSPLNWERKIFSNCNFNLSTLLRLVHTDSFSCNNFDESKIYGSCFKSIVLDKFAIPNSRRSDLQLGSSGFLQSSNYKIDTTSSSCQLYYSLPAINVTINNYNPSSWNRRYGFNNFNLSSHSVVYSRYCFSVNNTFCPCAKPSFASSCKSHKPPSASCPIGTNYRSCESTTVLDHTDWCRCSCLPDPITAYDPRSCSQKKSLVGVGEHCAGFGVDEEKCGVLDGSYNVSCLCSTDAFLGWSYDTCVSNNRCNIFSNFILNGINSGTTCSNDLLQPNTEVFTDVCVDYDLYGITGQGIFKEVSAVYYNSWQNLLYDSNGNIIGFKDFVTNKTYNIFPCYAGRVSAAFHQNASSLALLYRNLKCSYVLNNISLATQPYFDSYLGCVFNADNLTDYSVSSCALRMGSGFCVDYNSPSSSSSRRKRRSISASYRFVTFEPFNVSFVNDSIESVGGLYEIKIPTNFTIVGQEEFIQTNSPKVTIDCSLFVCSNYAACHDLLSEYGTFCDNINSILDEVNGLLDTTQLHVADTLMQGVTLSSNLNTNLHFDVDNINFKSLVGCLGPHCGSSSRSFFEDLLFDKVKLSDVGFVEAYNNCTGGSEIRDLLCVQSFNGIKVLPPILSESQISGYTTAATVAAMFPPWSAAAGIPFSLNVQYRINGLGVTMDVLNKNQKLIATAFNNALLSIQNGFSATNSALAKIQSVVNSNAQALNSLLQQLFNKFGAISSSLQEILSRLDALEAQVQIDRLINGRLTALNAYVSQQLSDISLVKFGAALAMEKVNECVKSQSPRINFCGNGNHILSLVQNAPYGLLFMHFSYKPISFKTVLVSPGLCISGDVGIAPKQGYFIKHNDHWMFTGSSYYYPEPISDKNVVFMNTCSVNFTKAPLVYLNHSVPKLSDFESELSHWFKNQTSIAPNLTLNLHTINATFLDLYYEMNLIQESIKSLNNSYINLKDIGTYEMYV


Assays:
[1] = molecular target: T1, HCoV-NL63 trimeric S protein (amino …); experiment: ELISA on coated S-trimeric antigen, anti-human IgG-HRP [Human IgG1, NT-193]
[2] = molecular target: T2, HCoV-HKU1 trimeric S protein (amino …); experiment: as above
[3] = molecular target: T1, HCoV-NL63 trimeric S protein (amino …); experiment: ELISA on coated S-trimeric antigen, anti-human IgG-HRP [Human IgG1, NT-108]

Binder	binding result [1]	binding result [2]	binding result [3]
NT-193 (recombinant human IgG1/kappa antibody) (antibody, V domains shown) VH: EVQLQQWGAGLLKPSETLSLTCAVYGGSFSGYYWSWIRQPPGKGLEWIGEINHSGSTNYNPSLKSRVTISVDTSKNQFSLKLSSVTAADTAVYYCARGWDLDYYYGMDVWGQGTTVTVSS VL: DIRMTQSPSAMSASVGDRVTVTCRASQGIGNYLAWFQLKPGKVPKRLIYAASSLQSGVPARFSGGGSGTEFTLTISSLQPEDFATYYCLQHGFLPWTFGQGTKLEIK	no binding (tested: 1000 ng/ml)	no binding (tested: 1000 ng/ml)	–
NT-108 (recombinant human IgG1/kappa antibody) (antibody, V domains shown) VH: EVQLQQSGPGLVKPSQTLSLTCSISGDSVSSNSAAWNWIRQSPSRGLEWLGRTYYRSKWYNDYAGTVKSRIAINPDTSKNQFSLHLNSVTPEDTAVYFCARVISVAGYAFDIWGQGTMVTVSS VL: EIVLTQSPGTLSLSPGERATLSCRASQSVSSTFLAWYQQKPGQAPRLLIYGASYMATGIPDRFSGSGSGTDFTLTISRLEPEDFAVYYCQQYGSSLTFGGGTKLEIK	–	–	no binding (tested: 1000 ng/ml)
